{"source": "paper doi:10.64898/2025.12.12.693935", "about": "“Tetraspanin CD82 reduces the formation of CADM1 oligomers” (bioRxiv, 2025)", "proteins": {"B1": {"name": "CADM1-StrepII3 (natural protein, human, UniProt Q9BY67 45-442, looked up)", "chain": "QNLFTKDVTVIEGEVATISCQVNKSDDSVIQLLNPNRQTIYFRDFRPLKDSRFQLLNFSSSELKVSLTNVSISDEGRYFCQLYTDPPQESYTTITVLVPPRNLMIDIQKDTAVEGEEIEVNCTAMASKPATTIRWFKGNTELKGKSEVEEWSDMYTVTSQLMLKVHKEDDGVPVICQVEHPAVTGNLQTQRYLEVQYKPQVHIQMTYPLQGLTREGDALELTCEAIGKPQPVMVTWVRVDDEMPQHAVLSGPNLFINNLNKTDNGTYRCEASNIVGKAHSDYMLYVYDPPTTIPPPTTTTTTTTTTTTTILTIITDSRAGEEGSIRAVDHAVIGGVVAVVVFAMLCLLIILGRYFARHKGTYFTHEAKGADDAADADTAIINAEGGQNNSEEKKEYFI", "notes": "CADM1 excluding the signal peptide, human, UniProtKB Q9BY67.2; called full-length in the results; expressed behind the vector's N-terminal signal peptide; also called full-length CADM1-StrepII3; source: HEK293-E+ cells, transiently transfected, solubilized in DDM, purified (strep-tactin, SEC); not shown: StrepII3, C-terminal, kept"}, "B2": {"name": "CADM1-eGFP-StrepII3 (natural protein, human, UniProt Q9BY67 45-442, looked up)", "chain": "B1 chain", "notes": "CADM1 excluding the signal peptide, human, UniProtKB Q9BY67.2; expressed behind the vector's N-terminal signal peptide; source: HEK293-E+ cells, transiently transfected, solubilized in DDM, purified (strep-tactin); not shown: eGFP, C-terminal, kept; StrepII3, C-terminal, kept"}, "B3": {"name": "CADM1(ECD)-His6 (domain or fragment, human, UniProt Q9BY67 45-374, looked up)", "chain": "QNLFTKDVTVIEGEVATISCQVNKSDDSVIQLLNPNRQTIYFRDFRPLKDSRFQLLNFSSSELKVSLTNVSISDEGRYFCQLYTDPPQESYTTITVLVPPRNLMIDIQKDTAVEGEEIEVNCTAMASKPATTIRWFKGNTELKGKSEVEEWSDMYTVTSQLMLKVHKEDDGVPVICQVEHPAVTGNLQTQRYLEVQYKPQVHIQMTYPLQGLTREGDALELTCEAIGKPQPVMVTWVRVDDEMPQHAVLSGPNLFINNLNKTDNGTYRCEASNIVGKAHSDYMLYVYDPPTTIPPPTTTTTTTTTTTTTILTIITDSRAGEEGSIRAVDH", "notes": "ectodomain of CADM1, human, UniProtKB Q9BY67.2, without the natural signal peptide; also called His-tagged CADM1 ectodomain; soluble CADM1(ECD)-His6; source: HEK293-E+ cells, secreted into the supernatant, purified (Ni Sepharose excel, SEC); not shown: His6, C-terminal, kept"}}, "key": {"[1]": {"target": "the molecule itself", "test": "SEC; F-SEC on tryptophan fluorescence, Superose 6 increase 10/300, purified protein injected at 0.15 to 80 µM; 150 mM NaCl, 25 mM HEPES pH 7.5, 0.025% DDM"}, "[2]": {"target": "the molecule itself", "test": "SEC; F-SEC on the eGFP signal, Superdex 200 increase 10/300 GL, strep-tactin-purified samples of individually expressed or co-expressed proteins; 150 mM NaCl, 25 mM HEPES pH 7.5, 0.025% DDM"}, "[3]": {"target": "the molecule itself", "test": "SEC-MALS; SEC-MALLS, Superdex 200 increase 10/300 GL, 200 mM NaCl, 25 mM HEPES 7.5, 0.4 mL/min; CADM1(ECD)-His6 at 160, 80, 40 and 20 µM; monomer to dimer"}}, "data": [{"protein": "B1", "values": [{"measurement": "binding result", "setting": "[1]", "result": "binds"}]}, {"protein": "B2", "values": [{"measurement": "binding result", "setting": "[2]", "result": "binds"}]}, {"protein": "B3", "values": [{"measurement": "stoichiometry N", "setting": "[3]", "result": 2}]}]}
